The target of the experiment is MHC class I (human). The experiment is described as follows: cell-based or functional assay.

“monoclonal antibody to MHC class I (w6/32 without sodium azide, Cat. No. 16-9983, e-Bioscience, Inc.)” came in with an IFN-γ production (ELISPOT, PBMC stimulated with CMV pp65 peptide …), percent inhibited, 2 µl W6/32 of 27 to 42% and an IFN-γ production (ELISPOT, PBMC stimulated with CMV pp65 peptide …), percent inhibited, 10 µl W6/32 of 58 to 71%.

The record behind these values is patent US20050074822A1.
